This test concerns the target Pol II stalk (RPB4-RPB7), S. scrofa (S. scrofa). Description: cryo-EM structure; PEC-RNGTT: phosphorylated Pol II, DNA-RNA scaffold with 17 nt 5′-triphosphate RNA, DSIF, RNGTT, 100 μM GMPPNP, NELF added stepwise; purified and crosslinked by GraFix; NELF seen in an Up and a Down state. Conditions: both partners purified.

B1: RNA guanylyltransferase and 5′-phosphatase (RNGTT) (enzyme)
chain: not shown
notes: human RNGTT, full-length gene; TPase domain, linker, GTase domain with OB fold; Released from the IgG resin by on-column digestion; also called capping enzyme; CE; source: Expi293F, transfected, purified (IgG resin, on-column digestion, Mono Q); not shown: 4 × ProteinA, N-terminal, cleaved
Regarding B1, the binding result is reported as “binds”.
